The numbers were not newly measured in US3940480A, “Process for production of stabilized powdery secretin preparation by lyophilization” (priority 1972, dated 1976), which cites them from elsewhere.

For the series the following is noted: kept at -20°C.

As for Secretin, the “Hormone activity of secretin kept at low temperature (in words)” value was “gradually loses its hormone activity”.
